Source: patent publication US20030165811A1, “Method for determining the activity of ornithine decarboxylase and for identifying effectors of ornithine decarboxylase activity” (priority 2001, published 2003)

Tests used:
[1] = test system: ornithine decarboxylase (ODC); experiment: Antizyme assay: spot test growth of ODC-knockout yeast complemented with human ODC on polyamine-free medium; format: cell-based; conditions: for inhibition of ODC activity (growth inhibition of the yeast cells): antizyme expressed from yeast promoters ADH, GaI1 or GPD in Y15034 with p413GaIL-ODC, PFSC plate, 30° C.
Method: The polyamine-dependent yeast strain Y15034 (ODC-knockout) and the corresponding wild-type strain Y10000 were each transformed by the Li acetate method with the plasmid p413GaIL-ODC. In addition, each of the 12 antizyme expression plasmids described in Example 2 and, as control, corresponding blank plasmids were cotransformed.
(§1) The transformants were plated out on Synthetic Complete (SC) medium (His-, Ura-,2% glucose, Difco). For each transformation, an overnight culture was inoculated in PFSC medium (His-, Ura-, 2% glucose). This was used firstly to carry out a spot test, i.e. the yeasts were adjusted to OD600 3.0 and subjected to 10-fold dilutions (5×). 2 μl of each dilution, starting with OD600 3.0, were placed as a drop on a PFSC plate (His-, Ura-, 2% galactose/raffinose [1:1]), and the plates were incubated at 30° C.

antizyme = experiment: Antizyme inhibitor assay: spot test growth of yeast co-expressing ODC, antizyme and AZI on polyamine-free medium; format: cell-based, human; conditions: AZI expressed from ADH, GaIL or GPD promoter (p415); PFSC plate, 30° C.
Method: The yeasts prepared in Example 6 were each additionally cotransformed with the 3 AZI expression plasmids (p415ADH-AZI, p415GaIL-AZI and p415GPD-AZI) described in Example 3 and with the corresponding blank plasmids.
as §1, with “Ura-,Leu-, 2% glucose).” for “Ura-,2% glucose, Difco).”, “Ura-, Leu-,” for “Ura-,”, “with an” for “with”, “3.0” for “3.0,”

Sequence of ornithine decarboxylase (ODC) (P11926 whole entry): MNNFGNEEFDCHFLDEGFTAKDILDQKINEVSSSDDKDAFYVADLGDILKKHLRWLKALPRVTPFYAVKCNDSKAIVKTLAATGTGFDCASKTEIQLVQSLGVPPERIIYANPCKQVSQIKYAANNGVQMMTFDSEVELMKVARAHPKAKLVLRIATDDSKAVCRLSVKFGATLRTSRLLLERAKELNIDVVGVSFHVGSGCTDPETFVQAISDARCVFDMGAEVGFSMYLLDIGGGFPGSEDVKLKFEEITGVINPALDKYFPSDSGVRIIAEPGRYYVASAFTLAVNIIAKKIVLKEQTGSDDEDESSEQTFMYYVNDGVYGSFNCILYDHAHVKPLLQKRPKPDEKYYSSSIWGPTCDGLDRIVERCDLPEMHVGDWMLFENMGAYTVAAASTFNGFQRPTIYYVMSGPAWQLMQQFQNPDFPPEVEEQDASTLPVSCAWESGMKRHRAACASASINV

Row | Molecule | inhibition of ODC activity (growth inhibition of the yeast cells) [1] | also measured
1 | Antizyme 1: human ODC antizyme 1 (Acc. No. D87914), protein that binds and inhibits ODC, expressed in yeast from plasmid | achieved inhibition of ODC activity only with the strong GPD promoter | 
2 | NCCCCN [putrescine, reference compound] |  | abolition of the antizyme-related growth inhibition ([1]; addition of putrescine to polyamine-free medium): abolish the growth inhibition
3 | antizyme 3: human ODC antizyme 3 (Acc. No. AF175296), expressed in yeast from plasmid (protein, UniProt Q9UMX2 1-235, looked up) Ornithine decarboxylase …: MPCKRCRPSVYSLSYIKRGKTRNYLYPIWSPYAYYLYCYKYRITLREKMLPRCYKSITYKEEEDLTLQPRSCLQCSESLVGLQEGKSTEQGNHDQLKELYSAGNLTVLATDPLLHQDPVQLDFHFRLTSQTSAHWHGLLCDRRLFLDIPYQALDQGNRESLTATLEYVEEKTNVDSVFVNFQNDRNDRGALLRAFSYMGFEVVRPDHPALPPLDNVIFMVYPLERDVGHLPSEPP | also by the GaI1 promoter | 
4 | antizyme 2: human ODC antizyme 2 (Acc. No. AF057297), expressed in yeast from plasmid (protein, UniProt O95190 1-189, looked up) Ornithine decarboxylase …: MINTQDSSILPLSNCPQLQCCRHIVPGPLWCSDAPHPLSKIPGGRGGGRDPSLSALIYKDEKLTVTQDLPVNDGKPHIVHFQYEVTEVKVSSWDAVLSSQSLFVEIPDGLLADGSKEGLLALLEFAEEKMKVNYVFICFRKGREDRAPLLKTFSFLGFEIVRPGHPCVPSRPDVMFMVYPLDQNLSDED | effective inhibition of ODC activity was made possible also by the ADH promoter | 
5 | antizyme inhibitor: human antizyme inhibitor, binds antizyme and releases ODC; full-length clone from human liver cDNA, expressed in yeast (protein, UniProt O14977 1-448, looked up, full-length, full-length clone from human liver cDNA, expressed in yeast) MKGFIDDANYSVGLLDEGTNLGNVIDNYVYEHTLTGKNAFFVGDLGKIVKKHSQWQNVVAQIKPFYTVKCNSAPAVLEILAALGTGFACSSKNEMALVQELGVPPENIIYISPCKQVSQIKYAAKVGVNILTCDNEIELKKIARNHPNAKVLLHIATEDNIGGEEGNMKFGTTLKNCRHLLECAKELDVQIIGVKFHVSSACKESQVYVHALSDARCVFDMAGEIGFTMNMLDIGGGFTGTEFQLEEVNHVISPLLDIYFPEGSGVKIISEPGSYYVSSAFTLAVNIIAKKVVENDKFPSGVEKTGSDEPAFMYYMNDGVYGSFASKLSEDLNTIPEVHKKYKEDEPLFTSSLWGPSCDELDQIVESCLLPELNVGDWLIFDNMGADSFHEPSAFNDFQRPAIYYMMSFSDWYEMQDAGITSDSMMKNFFFVPSCIQLSQEDSFSAEA |  | abolition of the ODC inhibition caused by antizyme (antizyme): the ODC inhibition caused by antizyme was abolished
